Laboratory results: the DeepSol protein solubility set

assay: soluble on expression in E. coli; label from the status in PepcDB or PDB records

Q: With “MGSDKIHHHHHHMTTTYPDFLGNSSLQTDTEHWEMEGGAQEVSVTYVLDTSVLLSDPLSLTRFAEHDVVLPIVVITELEAKRHHPDLGFFARQALRMLDELREIHGDLSKPLPIGDEGGHIHVELNHQNTGSLPVGFRLGDNDTRILAVAKNLQEEGHNVVLVSKDLPMRIKASASGIAAQEYRAALARDRGYTGMTHANITDDQLSELYDTGEVRIEELEKLPVNHGFTLKSNSGSALGRMNSDKIIELVPGDQQVFGISGRSAEQRVAIDLLNDDAVGIVSIGGPAGTGKSALALCAGLEAVMERRIQRKIIVFRPLFAVGGQELGYLPGDQEEKMGPWAQAVFDTLSSMVSQNIIDEALSRGLIEVLPLTHIRGRSLHDAFVIVDEAQSLERNVLLTMLSRIGQNSRVVLTHDVAQRDNLRVGRYDGIVSVVEALKDHELFGHITLQRSERSRIAELVTQVLDAPSL” as the sequence, how does the “soluble on expression in E. coli” value read?
A: not soluble

Q: For “SLFARITFYPSLFYNVMMEKITARHWYDRIDENVILGALPFRSVAQEMVQKENIKAVVSMNEDYELWAFSNNKARWAKLGVEFLQLETTDIFESPCQEKLWKGVNFMNRFLPANDRMALLPAAPGELAEPGTIYVHSKAGRTRSATLVGCYLIMKNGWSPEQAVEHMRQCRPHILLRSKQWEALRLFHQTKCPPPK”, which “soluble on expression in E. coli” value is on record?
A: soluble

Q: With “MHDLDRNEDRLRGTYDFPFEFHHIDHNHPRYVMSYHWHVEYEIIRILDGSLTVTLDEKSFTATAGDIIFVHSGILHSGIPEDCVYQCIVFDGNTFLKNNSVCAGYMQKIIHQEILIYHHFTPKYVDICATVNSLFDALWKKPSGYELSVLGQFYHFFGLIFGNHYYLESVTRARRDYKRILQLKQVLDFIEHNYASPLTLQQLSASVSMSPKYFCRFFSEMTHQTPMDYLNHQRIEQACYQLSTTDDSITEIAYRNGFNDLSYFIRTFKKYKGITPGKYKKA” as the sequence, how does the “soluble on expression in E. coli” value read?
A: not soluble

Q: With “MAHHHHHHMLMCAGRKRFYFSLPSSRALKNIVKLPLLEREDKQKIIHIWKEKYQNDKYVVADHIHISKYEQIKNNCKNNSHFIIPQRNQNGYINFYSQFIDHKLLFITALEEYNKLRANSTPYVTLHFFDELKSREIILTKLNIVNNVITKNQAIKFYNYILSFYSDANYFPYVCKFNNDSRNFHYDAFIDKFKHLC” as the sequence, how does the “soluble on expression in E. coli” value read?
A: not soluble

Q: Which “soluble on expression in E. coli” value does the source give for “MGNINSLFTTNPSEILPVEVYLNDLSCDAVENLGSTRFMKVARGRTHEGVFVYKVFVRQDLASLDPFPQRIIDIRKALMKSPNCCPIKKVLVKQKYAVMVRAFQKHTLFDRLSTRPFVVEAEKMWYIFLLFKALSQCETAGVCHGDLKSQNVLISSTNWLQITDFAPFKPCFLTHDNPSSFTFFFDTSRRQSCYIAPERFISATEYDEKLRDGQDEWLFGSLTPKMDMFSAGCIVFELLCDRPPFTYSSLCEYRSMNDADAGNMLLRLIQDVPAPYRPLLRLLLNRDPSFRISANAVLTGAALKFPHILESFLFKYLDRFRPLYGTSTSSDPSTDDFSQALEFSYLEPDDVITKLKREKQLWWARLSENDESKSFAFLFVSLITANLRALRTIQGKTDAIRMLVELSTISDSSVAIDRILPYFVHLWMDPETQVRATAVTAVAELLAPIQPKTYEESLVFVDYLFPHLNSMSNDSIDSPQHVLFAIATSLGQFADTAYRFYMAGREIRQATMYDDEVSTAGEQQQNDDAGALLHGVSAMFSALCSKEPMVKRCLVESKSLILLYHFFIKIGNDDTLLRFLCTFLNAKTEWRLRAAFFDSLPVCVQKRSEGMVPLLQLGLQDGEEHVVVRALGCIHILIKNENLDKMSVKKLLDDVLPFLVHPNDWIRSTVCDILLAIDCQWHNAEVHVKLIPLVSPFVEESKRGVLTLKSKPVLMSQLVDPIPRTTFNQIIDQSLENTKQITMLLEIHFQTGKPFEAGAGWFNTIFPKIKTETKAGVVEHNDLKAALEARKRLTASVYSFRKLFERMAETRNTAGMEIYLTRQLGTIDLSSIAHSRVRRKEFTYGGDESAMSSNSKHLTAINIPNHSTERRDTLLLAGEVVIEEERTVTNTPAPYSPVKNTTFDNQVNEMLAHLNELHMRNVNCRPKRPLAASASHPVLSASPSAGSLGSSSNNNVKGIIITHLHEHSGKITKLCANRESDLFLSGSTDGTVKVWKTRSVLGEGYGSARSEDTWIPTETSREKVNSVGWNDQFACSATNDGFVRWADVGQGSARVATQVRIPDAEGPPVYLHCNGPMAIVRTHHGVLYGIDLRVGASEGPLKRHDIWRKKFQESHGLVTSSAIDPWQQSWMVIGNNSGQKNLVLYDLRFKEEVLRWESPHQNTQPNRVWANPVSRQECPEVFVGFSMHGEISTYELSAQPLRKRVFWTGGAPILSYSAASNDARKQDSLATRSLCVCEKTGVVYTGDTRGAIRKWNPTRAVGCEIISAPPKGRTAYRTIFEENDTSTAPSGASTDPFVIYERTVLDTEAKENQKVVPLDSKPSTYHRTPITDMMLLNSELLVSSGYDGVIKIWK” here?
A: not soluble

Q: For “MLKYNVRGENIEVTDALRSYVEKRLNKLEKYFELNQDVIAHVNLRVYRDHSAKVEVTIPLPYLVLRAEETTDDMYRSIDFVSEKLERQIRKYKTRVNRKSREKGLQDFFVEQPEEEKKPSEFDIVRNKRVSLKPMDPEEAILQMDMLEHDFFVFEDAETNGTSVVYRRNDGRYGLIETNELEHHHHHH”, which “soluble on expression in E. coli” value is on record?
A: soluble

Q: For “SNAYRGPEAFLKLPKDLKDREALQDIMQDIGNSDDILAAVVLSATPGAVEAFRKNGETIRITGDGLKAAHRFLSNDPKIGEKRIRPGALIRVKKTEKGSWQIVQLP”, which “soluble on expression in E. coli” value is on record?
A: soluble

Q: Which “soluble on expression in E. coli” value does the source give for “MKLALTLEADSVNVQALNMGRIVVDVDGVNLSELINKVSENGYSLRVVDKSDQHATSTPPPLTTLTCIRCSTAHITETDNAWLYSLSHQTNDDGETEWIHFTGSGYLLRTDAWSYPVLRLKRLGLSRTFRRLVVTLTRRYGVSLIHLDAGAECLPGFPTFDW” here?
A: not soluble

Q: Which “soluble on expression in E. coli” value does the source give for “MGSDKIHHHHHHLKPNNNTNKGVDYWTNRISELEMPALCSTVKSLEKLAKDDVSSLALLGRSVMHDNALTSRILRVANSAIYHKGSSQISTVSRAAIVLGFDAVRNICITAKLLSSLLESKNLAPNVYQRLIKLMAKAFQAAMIARMMLSHHDEEMQEEAFIASLLYHIGESAFWSIGGEFTEELDLTLCQCETPAEERSATREALGASFLQLTQSIARNWGLGELLIQALNYPEDQRPDIRAIFLADKLCDILSQPVLDKLELAKRMTQAAIFTGLEEKEFLVRMQRCANATHKLAEVYGAKVLLDYLPDPKRIVAAEPDLPPIPLDMPVYQVNLNIQLAKLRELTGFAINKADFNQIMQTVLEGILEGVGVDRCGVLLLSPSRKQLQPRVILGRDADAIKQEFIIDLSDKRGLFHQAMEHKAPLWVDDPSSKNGRSSARSCKRGTCHGRAFYWRLCWLIAK” here?
A: not soluble

Q: For “KEENNFINLYTVKNPLKCKIVDKINLVRPNSPNEVYHLEINHNGLFKYLEGHTCGIIPYYNELDNNPNNQINKDHNIINTTNHTNHNNIALSHIKKQRCARLYSISSSNNMENLSVAIKIHKYEQTENAPNITNYGYCSGFIKNLKINDDIYLTGAHGYFNLPNDAIQKNTNFIFIATGTGISPYISFLKKLFAYDKNNLYNRNSNYTGYITIYYGVYNEDSILYLNELEYFQKMYPNNINIHYVFSYKQNSDATSFYVQDEIYKRKTEFLNLFNNYKCELYICGLKSIRYKVMDILKSHDQFDEKKKKRVHVEVY”, which “soluble on expression in E. coli” value is on record?
A: soluble

Q: For “MENEVVFFCRKCNHHLFAKNPMINTLKVISEMDCPNCGEEGYHNWILSHIGDSEKEKENYNWKLEHHHHHH”, which “soluble on expression in E. coli” value is on record?
A: soluble

Q: With “MEKLENFWTRDELNTFFDYVTPERDVEQFTMFRVLAYSGIRKGELLALTWKDINFEDNTLRVNKTLTQGLGGKLIVQPPKSRAGRRTIDLDDSTMRYLRQWKGVQRETFLGMGFNTNNVDQLVFASNRNHFRSMNTPTKWLNKAIKATGLKHISIHGFRHTHASLLYQSGVGLKETQQRLGHSRADSSVTLDVYTHTTEQQNVAALQRFENYVEAKLEHHHHHH” as the sequence, how does the “soluble on expression in E. coli” value read?
A: not soluble

Q: With “MYSSNYIYQHDDLELHGFLAHEEGIKQSRPAVIVAHDWSGRGEFACLKAKQLAEMGYIGFALDMYGQGQIGSNNDEKMALMQPLYSDRSLLRGRLYAALEAIKSISVVDNNRIAIIGFCFGGLCALDLARSGADIRGAVSFHGLLNKPENLASGRIKAKILALHGYDDPMAKPEQVHAFCQEMTEANVDWQMHMYGQVKHAFTNPQAHDEHLGLIYDEVAARRSWQAMSQFLQEIFN” as the sequence, how does the “soluble on expression in E. coli” value read?
A: not soluble

Q: Which “soluble on expression in E. coli” value does the source give for “MDEEASRTARESLELVFRMSNILDTGLDRHTLSVLIALCDLGVNPEALATVVKELRRESIPDSVTTTPSIH” here?
A: soluble

Q: Which “soluble on expression in E. coli” value does the source give for “MGSSHHHHHHSSGLVPRGSTYKLTLIRHGESEWNKENRFTGWTDVSLSEQGVSEAIEAGRMLLEKGFKFDVVYTSVLKRAIMTTWTVLKELGNINCPIINHWRLNERHYGALQGLNKSETASKFGEDQVKIWRRSFDVPPPVLEKSDPRWPGNELIYKGICPSCLPTTECLKDTVERVKPYFEDVIAPSIMSGKSVLVSAHGNSLRALLYLLEGMTPEQILEVNIPTACPLVLELDDYLKVTKKYYLISEEELKAKMEAVANQGKAK” here?
A: soluble

Q: With “MPLTKRAVSPVNLSRGTIPSTIHRDELQCTANGTIANLVRQLSSLSKHAENIFGEIYHDAMIINHKSNTLQQRIDRLHKKVEDLDSNSDQATLNEANMRKAFKSSMLVDQHILDRSTLPTALTEIYAKCDPPPDLDALNPYRDSEIPALSLYTNPSFFFDLWKKETLKEVAERPRRVKSPNDGSKSPKKRRKQPGQGPLGTTAYNDMQHRNRQISGSRINQQNEVFSFPEEYQAPQALGLQLNFKNQHPSNMVAPIGMTMHHHPQQNVHPSQQRGGAPAAARGSPNVKRPTEAPPPVNLDHLPPPDMSILSIDDDDDDLPPPPPPLLMNTSIVHQLPAEAPSTIQFVEPSAAPPTNIPPPPPPPPPMVISSAAASFAAPAPKPSADGEAAGTNSPVAPKQPDARSDLLAQIQSGIKLKKVQRAEAEAAENAALEANNVAAILKRRMDQVMGNDDSSSEEGADDDEWDD” as the sequence, how does the “soluble on expression in E. coli” value read?
A: not soluble

Q: For “MGSDKIHHHHHHMLQNGYVPCSFRISMAGMDVEFNTKNDVIKAYLSRPDDGMRHPGIVVIHEIFGLDDHIRSVADRISREGYVALAPDLFSSHELSAKITREGILESMKFIMSIPPEKQRDDSYRNSLLNSMPEEKRRIMSSTYSALFVNRPTQLLTEYLEYAVDYLKGIGVTSVGSVGFCFGGGMSANLGCTGKVDATVIFYGENPDPIDKVKGMKSVLGLYAGEDHRITSRVPELLAKLIEFSIPVTIKVYPGAYHAFFNDTRPQIYNEAAAKDAWNMMLYFFRTQLGP”, which “soluble on expression in E. coli” value is on record?
A: not soluble

Q: Which “soluble on expression in E. coli” value does the source give for “MNCMWCDSTEAKESLNTVYWELPDGTKAIEIQETPCISCSSCGMDYQSDHTVKEIEDQLFLIYTKDLPKQLTYEELMGRPRLLKRNYFDF” here?
A: not soluble

Q: Which “soluble on expression in E. coli” value does the source give for “MSLKYPGFLYLNDIHIDLSYNPKSNKDWCHSQTNNLLESWEFGQYNCDPPPKLYDSLVESLKTNVPSVDFILLGGDLPSHDLGGNYTFLKEHFRLITDPLEKLYPNKKIFITLGNNDFQENYGSFKTDLKDFENAHEVFGKWMNEEQSKTFKKGGYYYEDMPELKLRLLLLNTVMYTNTKSRVFNESLKDPYDQFAWIRQTYKEGVDKGYKVGVALHVPPGIVYYKGIPGFPSMYLEEFGKVFEECDFSFTISGHSHIDTLNPLYKANVEEDNIQYSLSAVSVSPSHYNNPGYRYFEIKDGVLQDYTQFYADIMMNPDSPKWEVEYKFRDAYKVKDLSKKSLNDATRYIRSKGSVIWSYRGYIYSQAEKYNPFFYCALRALTKEDVFKCSLDLNVNLSSEGHHHHHH” here?
A: soluble

Q: For “MNVFYTREGVGDVLLVSLKPAADEERTFVRQGDVVRIMSERTGETVGYNIFSASSYYPFSGNGPLEVNEELVGVINDILAKNGFDEPIEADLSPKFVVGYVKEKTKHPNADKLSVCQVDVGGEVLQIVCGAPNVAEGQKVVVAKIGAVMPNGLVIQESELRGVRSSGMICSARELGLPNAPQEKGILVLSDEYEVGQPFVF”, which “soluble on expression in E. coli” value is on record?
A: not soluble
